Data published in PMC9896810, “Crk proteins activate the Rap1 guanine nucleotide exchange factor C3G by segregated adaptor-dependent and -independent mechanisms” (Cell Communication and Signaling : CCS, 2023).
Several values for one entry are separate records, joined by “and”; a condition that tells them apart may be missing. Identical values can stand only once.

Legend:
[1] = molecular target: T1, C3G (full-length, residues 4-1077) (human, UniProt Q13905-1 4-1077); experiment: ITC; C3G in the cell titrated with CrkL in the syringe, 25 °C, 300 mM NaCl, pH 7.5; each titration analysed individually with Origin ITC, independent-site model; settings: both partners purified
T1 construct: also called C3G WT; RapGEF1; source: E. coli BL21 (DE3), purified (IMAC, TEV digestion, reversed IMAC, SEC); not shown: His, N-terminal, cleaved; Halo, N-terminal, cleaved
T1 sequence (looked up): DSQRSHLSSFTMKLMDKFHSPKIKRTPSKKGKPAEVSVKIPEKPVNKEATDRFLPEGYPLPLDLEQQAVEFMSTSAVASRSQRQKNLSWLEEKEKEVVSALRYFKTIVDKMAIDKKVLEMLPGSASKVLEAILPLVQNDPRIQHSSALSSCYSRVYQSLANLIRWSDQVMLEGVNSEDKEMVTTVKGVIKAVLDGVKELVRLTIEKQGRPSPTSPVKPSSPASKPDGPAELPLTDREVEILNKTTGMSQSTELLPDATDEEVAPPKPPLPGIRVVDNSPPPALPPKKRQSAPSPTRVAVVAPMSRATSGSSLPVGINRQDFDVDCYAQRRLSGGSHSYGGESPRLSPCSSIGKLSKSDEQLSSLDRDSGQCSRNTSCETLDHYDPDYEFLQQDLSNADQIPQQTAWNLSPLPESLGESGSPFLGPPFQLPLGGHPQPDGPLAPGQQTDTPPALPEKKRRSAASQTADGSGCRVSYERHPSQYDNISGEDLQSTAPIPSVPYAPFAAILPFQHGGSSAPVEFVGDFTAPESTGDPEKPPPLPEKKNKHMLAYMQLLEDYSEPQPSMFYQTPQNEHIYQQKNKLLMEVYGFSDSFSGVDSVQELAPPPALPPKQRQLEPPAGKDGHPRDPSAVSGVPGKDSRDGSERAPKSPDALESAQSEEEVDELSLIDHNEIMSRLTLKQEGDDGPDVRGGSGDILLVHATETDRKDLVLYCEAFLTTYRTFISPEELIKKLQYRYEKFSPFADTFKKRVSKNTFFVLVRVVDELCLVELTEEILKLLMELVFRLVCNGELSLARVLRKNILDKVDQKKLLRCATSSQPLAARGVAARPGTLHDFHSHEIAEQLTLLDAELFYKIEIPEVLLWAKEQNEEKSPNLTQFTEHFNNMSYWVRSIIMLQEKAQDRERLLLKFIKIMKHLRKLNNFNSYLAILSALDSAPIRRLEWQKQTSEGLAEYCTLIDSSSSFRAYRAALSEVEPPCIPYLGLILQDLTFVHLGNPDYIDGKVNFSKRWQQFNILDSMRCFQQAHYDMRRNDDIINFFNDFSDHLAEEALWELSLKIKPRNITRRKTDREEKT

[2] = molecular target: T2, C3G-AAPA (human, UniProt Q13905-1 4-1077, P283A | P284A | L286 | P287 | P289A | P453A | P454A | L456A | P457A | K459A | …); experiment: ITC; single-PRM mutant of C3G in the cell titrated with CrkL or CrkL-SH3N, 25 °C, 300 mM NaCl, pH 7.5; SEDPHAT, 1:1 heteroassociation model; N is the competent fraction of C3G; settings: both partners purified
T2 construct: human C3G isoform a, residues 4-1077; only P3 kept, P1, P2 and P4 mutated to Ala; source: E. coli BL21 (DE3), purified (IMAC, TEV digestion, reversed IMAC, SEC); not shown: His, N-terminal, cleaved; Halo, N-terminal, cleaved
T2 sequence (looked up): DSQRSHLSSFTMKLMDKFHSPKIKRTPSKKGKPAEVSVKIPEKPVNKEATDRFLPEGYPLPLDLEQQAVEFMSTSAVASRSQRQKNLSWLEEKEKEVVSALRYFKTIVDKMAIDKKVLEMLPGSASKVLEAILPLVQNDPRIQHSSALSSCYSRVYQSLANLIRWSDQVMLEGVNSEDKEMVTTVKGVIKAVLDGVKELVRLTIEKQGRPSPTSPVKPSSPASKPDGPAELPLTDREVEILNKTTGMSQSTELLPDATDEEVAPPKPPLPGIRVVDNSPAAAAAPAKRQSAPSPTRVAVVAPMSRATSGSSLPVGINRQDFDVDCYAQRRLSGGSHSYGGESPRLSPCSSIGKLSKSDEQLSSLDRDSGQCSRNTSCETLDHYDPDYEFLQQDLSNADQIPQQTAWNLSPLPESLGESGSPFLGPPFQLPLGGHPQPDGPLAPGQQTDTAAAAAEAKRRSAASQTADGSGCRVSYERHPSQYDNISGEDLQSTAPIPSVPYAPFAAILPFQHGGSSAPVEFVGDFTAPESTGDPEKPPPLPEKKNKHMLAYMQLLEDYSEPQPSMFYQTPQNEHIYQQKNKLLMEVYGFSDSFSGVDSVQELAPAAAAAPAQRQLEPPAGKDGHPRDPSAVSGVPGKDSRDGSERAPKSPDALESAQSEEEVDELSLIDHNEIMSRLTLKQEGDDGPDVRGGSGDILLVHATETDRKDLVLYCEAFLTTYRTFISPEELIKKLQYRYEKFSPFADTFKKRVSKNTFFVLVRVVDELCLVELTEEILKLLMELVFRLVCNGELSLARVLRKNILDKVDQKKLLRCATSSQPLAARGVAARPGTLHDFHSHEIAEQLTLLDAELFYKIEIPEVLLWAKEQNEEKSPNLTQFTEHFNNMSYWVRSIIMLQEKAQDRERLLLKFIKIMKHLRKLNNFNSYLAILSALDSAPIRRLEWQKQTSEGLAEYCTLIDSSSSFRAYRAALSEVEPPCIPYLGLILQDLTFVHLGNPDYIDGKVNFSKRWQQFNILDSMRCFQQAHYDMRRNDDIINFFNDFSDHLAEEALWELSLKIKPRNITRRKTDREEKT

B1: CrkL (full-length) (natural protein, human, UniProt P46109 1-303, looked up)
chain: MSSARFDSSDRSAWYMGPVSRQEAQTRLQGQRHGMFLVRDSSTCPGDYVLSVSENSRVSHYIINSLPNRRFKIGDQEFDHLPALLEFYKIHYLDTTTLIEPAPRYPSPPMGSVSAPNLPTAEDNLEYVRTLYDFPGNDAEDLPFKKGEILVIIEKPEEQWWSARNKDGRVGMIPVPYVEKLVRSSPHGKHGNRNSNSYGIPEPAHAYAQPQTTTPLPAVSGSPGAAITPLPSTQNGPVFAKAIQKRVPCAYDKTALALEVGDIVKVTRMNINGQWEGEVNGRKGLFPFTHVKIFDPQNPDENE
notes: human CrkL, residues 1-303, in pETEV15b; also called Crk-like protein; source: E. coli BL21 (DE3), purified (IMAC, TEV digestion, SEC); not shown: His, N-terminal, cleaved
Kd [1]: 3.3 µM | stoichiometry N [1]: 3.2 and 2.8 and 2.9 | Kd [2]: 2100 nM
